Experimental data: patent publication US20050176062A1, “Method of identifying ligands for nuclear receptors” (priority 2002, published 2005)
Values belong to the molecule of their own block, whether it stands above or below them. Where no end group is shown, it is not given here. The star is where a group is joined. Biotin = O=C1N[C@H]2[C@H](CS[C@H]2CCCCC(=O)*)N1

B1: biotinylated 24-mer GRIP1 peptide (Biotinyl-GSTHGTSLKEKHKILHRLLQDSSS-NH2) (peptide)
peptide: Biotin-GSTHGTSLKEKHKILHRLLQDSSS-NH2
SMILES: CC[C@H](C)[C@H](NC(=O)[C@H](CCCCN)NC(=O)[C@H](Cc1c[nH]cn1)NC(=O)[C@H](CCCCN)NC(=O)[C@H](CCC(=O)O)NC(=O)[C@H](CCCCN)NC(=O)[C@H](CC(C)C)NC(=O)[C@H](CO)NC(=O)[C@@H](NC(=O)CNC(=O)[C@H](Cc1c[nH]cn1)NC(=O)[C@@H](NC(=O)[C@H](CO)NC(=O)CNC(=O)CCCC[C@@H]1SC[C@@H]2NC(=O)N[C@@H]21)[C@@H](C)O)[C@@H](C)O)C(=O)N[C@@H](CC(C)C)C(=O)N[C@@H](Cc1c[nH]cn1)C(=O)N[C@@H](CCCNC(=N)N)C(=O)N[C@@H](CC(C)C)C(=O)N[C@@H](CC(C)C)C(=O)N[C@@H](CCC(N)=O)C(=O)N[C@@H](CC(=O)O)C(=O)N[C@@H](CO)C(=O)N[C@@H](CO)C(=O)N[C@@H](CO)C(N)=O
notes: Synthetic (Mimotopes #814201), immobilized on a streptavidin coated SA-chip; also called biotinylated GRIP1 peptide; immobilized GRIP1 peptide
B2: (His)6ERα-LBD301-553 (receptor, UniProt P03372 301-553, looked up)
chain: SKKNSLALSLTADQMVSALLDAEPPILYSEYDPTRPFSEASMMGLLTNLADRELVHMINWAKRVPGFVDLTLHDQVHLLECAWLEILMIGLVWRSMEHPGKLLFAPNLLLDRNQGKCVEGMVEIFDMLLATSSRFRMMNLQGEEFVCLKSIILLNSGVYTFLSSTLKSLEEKDHIHRVLDKITDTLIHLMAKAGLTLQQQHQRLAQLLLILSHIRHMSNKGMEHLYSMKCKNVVPLYDLLLEMLDAHRLHAPT
notes: Control protein, expressed in E. coli, purified by Ni-NTA and size exclusion; Tested alone, after preincubation with E2 (10 µM) and with the antagonist BA31257; also called ER-LBD; not shown: (His)6 tag

Assays:
[1] = molecular target: T1, (His)6RORa-LBD269-556 (Homo sapiens, UniProt P35398); assay: GC-MS of the hexane extract of (His)6RORa-LBD269-556 (identification of bound ligands); conditions: GC/MS after BSTFA derivatization, protein from Sf9 cells
T1 construct: Extraction is performed by mixing 2 ml of a solution containing (His)6RORa-LBD269-556 at 4.6 mg/ml; made in house; host or cells: Sf9 insect cells (baculovirus)
T1 sequence (P35398 269-556 isoform P35398-1): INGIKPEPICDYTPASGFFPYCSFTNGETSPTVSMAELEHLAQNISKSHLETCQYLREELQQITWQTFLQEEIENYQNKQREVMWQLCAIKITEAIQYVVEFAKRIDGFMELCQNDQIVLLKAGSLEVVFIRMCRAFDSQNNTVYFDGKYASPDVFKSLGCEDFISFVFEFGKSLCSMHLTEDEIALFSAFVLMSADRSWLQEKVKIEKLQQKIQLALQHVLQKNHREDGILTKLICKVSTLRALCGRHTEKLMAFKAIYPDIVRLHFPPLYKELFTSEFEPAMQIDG
Method: Extraction is performed by mixing 2 ml of a solution containing (His)6RORa-LBD269-556 at 4.6 mg/ml and 2 ml of hexane and shaking for 1 minute. The aqueous phase is extracted a second time using the same procedure. The organic phases are pooled and evaporated to dryness under nitrogen. The extract is dissolved in […] pyridine. An aliquot of 10 ml is derivatized with 5 ml N,O-bistrimethylsilyl-trifluoroacetamide (BSTFA) at 60° C. for 30 min. Reference compounds cholesterol and 7-dehydrocholesterol (Sigma) are derivatized following the same procedure. For structure elucidation, the underivatized and the derivatized sample and reference compounds are analyzed by GC/MS, respectively.
The GC/MS system consists of a Carlo Erba Mega 5160 gas chromatograph, which is coupled to a Finnigan TSQ-700 mass spectrometer equipped with an electron impact ion source (EI). The ion source is heated to a temperature of 150° C., filament current is 20 mA, electron multiplier voltage 1000V, and the conversion dynode is set to 15 kV. The scan range is m/z 100-700 with a scan time of 2 seconds. The gas chromatographic separation is performed on a 10 m×0.2 mm Duran glass column coated with a […] film of SDPE-08 using hydrogen as carrier gas at a constant flow rate of 2.5 ml/min. The temperature program is set to 100-330° C. at a rate of 6° C./min. The GC/MS interface temperature is set to 350° C. […]

[2] = molecular target: T2, (His)6RORa-LBD304-556 (Homo sapiens, UniProt P35398); assay: X-ray crystallography of (His)6RORa-LBD304-556 (ligand in the ligand binding pocket); conditions: 1.88 Å diffraction data
T2 construct: Crystals are obtained for the construct (His)6RORa-LBD304-556 and diffraction data are collected to 1.88 Å; 6xHis (N); made in house; host or cells: Sf9 insect cells (baculovirus)
T2 sequence (P35398 304-556 isoform P35398-1): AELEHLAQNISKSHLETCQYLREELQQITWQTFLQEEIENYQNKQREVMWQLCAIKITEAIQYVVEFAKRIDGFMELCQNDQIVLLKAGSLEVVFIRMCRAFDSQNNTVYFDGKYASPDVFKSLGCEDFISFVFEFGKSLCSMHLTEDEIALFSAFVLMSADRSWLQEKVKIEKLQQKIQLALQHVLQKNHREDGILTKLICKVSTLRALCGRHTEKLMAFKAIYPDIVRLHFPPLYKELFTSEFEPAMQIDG
Description: Crystals are obtained for the construct (His)6RORa-LBD304-556 and diffraction data are collected to 1.88 Å at the synchrotron (SNBL, ESRF Grenoble). The structure is solved ab initio with a Hg-derivative.
The excellent fit to the electron density allows the identification of the ligand to be cholesterol. […] Based on the X-ray structure, proposals are made for cholesterol derivatives, and in particular cholesterol sulfate is proposed as a ligand with a higher affinity to RORa than cholesterol, because of the electrostatic interactions with two Arg-side chains at the hydrophilic end of the LBP. Confirmation of the presence of cholesterol and comparative binding studies between cholesterol and cholesterol sulfate are further achieved by mass spectrometry on construct (His)6RORa-LBD269-556.

[3] = molecular target: biotinylated 24-mer GRIP1 peptide (Biotinyl-…-NH2) (mouse); assay: Biacore SPR, biotinylated peptide on streptavidin SA-chip, RORα-LBD injected
[4] = molecular target: B2; assay: Biacore SPR, biotinylated peptide on SA-chip, ER-LBD preincubated with E2 (10 µM)
[5] = molecular target: B2; assay: Biacore SPR, biotinylated peptide on SA-chip, ER-LBD without added ligand (basal)
[6] = molecular target: (His)6RORα-LBD269-556 (human) (UniProt P35398); assay: Biacore SPR competition: free 20-mer peptide inhibits binding of RORα-LBD to the immobilized 24-mer GRIP1 peptide
[7] = molecular target: B1; assay: Biacore SPR, ER-LBD preincubated with E2 (10 µM) against ER-LBD without ligand
[8] = molecular target: T3, ERα-LBD / GRIP1 peptide interaction (Homo sapiens, UniProt P03372); assay: Biacore binding assay of (His)6ERa-LBD301-553 to immobilized GRIP1 peptide (positive control); conditions: basal level, no ligand; read-out: apparent Kd of ERa-LBD binding to immobilized GRIP1 peptide
T3 construct: Control proteins (His)6ERα-LBD301-553 and (His)6cytohesin-1 are cloned and expressed in E. coli; (His)6; made in house; host or cells: E. coli
T3 sequence (P03372 301-553): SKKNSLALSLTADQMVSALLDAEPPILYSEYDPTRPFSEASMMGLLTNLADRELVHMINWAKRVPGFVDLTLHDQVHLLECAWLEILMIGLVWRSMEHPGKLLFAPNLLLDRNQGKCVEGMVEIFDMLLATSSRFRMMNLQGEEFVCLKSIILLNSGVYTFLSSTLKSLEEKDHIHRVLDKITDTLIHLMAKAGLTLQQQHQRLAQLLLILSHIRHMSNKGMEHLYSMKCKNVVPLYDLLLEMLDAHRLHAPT

- SIC-% of compound in the extract of (His)6RORa-LBD269-556 [1]: 77.4%
Molecule: CC(C)CCC[C@@H](C)[C@H]1CC[C@H]2[C@@H]3CC=C4C[C@@H](O)CC[C@]4(C)[C@H]3CC[C@]12C [Cholesterol]
- ligand found in the LBP by electron density [2]: unambiguous identification of the ligand as cholesterol

- Kd [3]: 241 nM
Molecule: (His)6RORα-LBD269-556 (from UniProt P35398 269-523) (receptor)

- IC50 [6]: 3000 nM
Molecule: GTSLKEKHKILHRLLQDSSS (not fully specified) [non-biotinylated 20-mer GRIP1 peptide …]

The remaining lines, values behind:

Molecule: CC(C)CCC[C@@H](C)[C@H]1CC[C@H]2C3=CC=C4C[C@@H](O)CC[C@]4(C)[C@H]3CC[C@]12C [7-Dehydrocholesterol]
- SIC-% of compound in the extract of (His)6RORa-LBD269-556 [1]: 18.3%

Molecule: B1
- Kd [4]: ~70 nM
- Kd [5]: ~450 nM

Molecule: B2
- fold increase of binding affinity [7]: 6.5 fold

B3: (His)6ERa-LBD301-553: control protein, His-tagged ERα ligand binding domain 301-553, cloned and expressed in E. coli (protein)
chain: SKKNSLALSLTADQMVSALLDAEPPILYSEYDPTRPFSEASMMGLLTNLADRELVHMINWAKRVPGFVDLTLHDQVHLLECAWLEILMIGLVWRSMEHPGKLLFAPNLLLDRNQGKCVEGMVEIFDMLLATSSRFRMMNLQGEEFVCLKSIILLNSGVYTFLSSTLKSLEEKDHIHRVLDKITDTLIHLMAKAGLTLQQQHQRLAQLLLILSHIRHMSNKGMEHLYSMKCKNVVPLYDLLLEMLDAHRLHAPT
modifications: left off: small tags and cut ends
- Kd [8]: ~450 nM
